Measured values: PMC5159498

Key:
RAC1 (aa 1-179) (human) = RAC1 (aa 1-179) (human) (UniProt P63000); experiment: fluorescence polarisation; IQGAP1 variant titrated to mGppNHp-bound RHO protein (1 μM); equilibrium Kd (eKd), quadratic fit; 30 mM Tris/HCl pH 7.5, 150 mM NaCl, 5 mM MgCl2, 3 mM DTT, 25 °C
CDC42 Q61L (human) [1] = target: CDC42 Q61L (human) (UniProt P60953); experiment: as above
CDC42 (aa 1-178) (human) [2] = target: CDC42 (aa 1-178) (human) (UniProt P60953); experiment: as above
CDC42 (aa 1-178) (human) [3] = target: CDC42 (aa 1-178) (human) (UniProt P60953); experiment: fluorescence polarisation; IQGAP1 variant titrated to mGDP-bound (inactive) RHO protein (1 μM), same conditions as with mGppNHp; 30 mM Tris/HCl pH 7.5, 150 mM NaCl, 5 mM MgCl2, 3 mM DTT, 25 °C
CDC42 Q61L (human) [4] = target: CDC42 Q61L (human) (UniProt P60953); experiment: fluorescence polarisation; GRD1-CT (0-2.5 μM) or GRD2 (0-7.5 μM) titrated to tGppNHp-bound CDC42 Q61L (1 μM); 30 mM Tris/HCl pH 7.5, 150 mM NaCl, 5 mM MgCl2, 3 mM DTT, 25 °C
CDC42 Q61L (human) [5] = target: CDC42 Q61L (human) (UniProt P60953); experiment: stopped-flow fluorometry; tGppNHp (tamra-GppNHp)-bound CDC42 or CDC42 Q61L (0.2 μM) rapidly mixed with IQGAP1 variant (2-10 μM GRD1-CT for Q61L); Kd = koff/kon; 30 mM Tris-HCl pH 7.5, 10 mM KH2PO4/K2HPO4, 5 mM MgCl2, 3 mM DTT

IQGAP1 GRD1-CT (aa 863-1657), sequence (P46940 863-1657): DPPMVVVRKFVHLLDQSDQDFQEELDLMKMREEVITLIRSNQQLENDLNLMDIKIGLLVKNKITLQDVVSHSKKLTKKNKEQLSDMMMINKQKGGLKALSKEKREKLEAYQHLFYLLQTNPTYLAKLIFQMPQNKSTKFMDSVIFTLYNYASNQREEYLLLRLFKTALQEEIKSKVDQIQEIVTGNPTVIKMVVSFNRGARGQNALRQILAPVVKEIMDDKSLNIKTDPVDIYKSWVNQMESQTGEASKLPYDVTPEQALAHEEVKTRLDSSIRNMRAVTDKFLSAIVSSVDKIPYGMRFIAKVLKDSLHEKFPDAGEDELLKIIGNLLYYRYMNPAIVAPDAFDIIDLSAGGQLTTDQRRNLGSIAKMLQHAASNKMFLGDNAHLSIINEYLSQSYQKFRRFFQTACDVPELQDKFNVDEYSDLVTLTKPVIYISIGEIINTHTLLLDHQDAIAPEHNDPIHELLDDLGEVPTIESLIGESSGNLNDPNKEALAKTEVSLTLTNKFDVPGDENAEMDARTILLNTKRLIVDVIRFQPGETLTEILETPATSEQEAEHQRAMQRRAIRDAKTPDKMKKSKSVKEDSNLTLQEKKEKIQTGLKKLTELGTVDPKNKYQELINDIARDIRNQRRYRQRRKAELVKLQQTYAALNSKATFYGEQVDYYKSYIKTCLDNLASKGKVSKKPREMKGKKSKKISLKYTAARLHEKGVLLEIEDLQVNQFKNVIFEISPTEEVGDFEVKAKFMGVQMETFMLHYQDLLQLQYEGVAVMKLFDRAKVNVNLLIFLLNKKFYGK
IQGAP1 GRD2 (aa 962-1345), sequence (P46940 962-1345): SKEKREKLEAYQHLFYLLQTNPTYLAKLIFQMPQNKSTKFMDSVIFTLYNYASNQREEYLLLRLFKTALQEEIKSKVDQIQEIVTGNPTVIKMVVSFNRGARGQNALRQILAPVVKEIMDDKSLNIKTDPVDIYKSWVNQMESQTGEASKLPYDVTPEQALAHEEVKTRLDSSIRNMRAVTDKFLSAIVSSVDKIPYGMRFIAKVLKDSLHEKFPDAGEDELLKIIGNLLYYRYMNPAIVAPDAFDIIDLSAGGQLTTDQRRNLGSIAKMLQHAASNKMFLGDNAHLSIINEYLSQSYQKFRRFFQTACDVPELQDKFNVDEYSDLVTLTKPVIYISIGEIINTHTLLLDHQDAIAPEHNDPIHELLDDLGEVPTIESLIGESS
CDC42 (aa 1-178) (human), sequence (P60953 1-178): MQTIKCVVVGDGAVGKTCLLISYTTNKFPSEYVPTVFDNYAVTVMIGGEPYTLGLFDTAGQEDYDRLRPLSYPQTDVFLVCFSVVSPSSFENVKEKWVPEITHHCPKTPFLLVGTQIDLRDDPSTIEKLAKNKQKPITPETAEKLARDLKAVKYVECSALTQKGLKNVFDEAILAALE

Substance | Kd (RAC1 (aa 1-179) (human)) [nM] | Kd (CDC42 Q61L (human) [1]) [nM] | Kd (CDC42 (aa 1-178) (human) [2]) [nM] | Kd (CDC42 (aa 1-178) (human) [3]) [nM] | Kd (CDC42 Q61L (human) [4]) [nM] | Kd (CDC42 Q61L (human) [5]) [nM]
IQGAP1 GRD2 (aa 962-1345) (from UniProt P46940 962-1345) (domain or fragment) | 81500 | 2370 | 30200 | 185000 | 1130 | –
IQGAP1 GRD1-CT (aa 863-1657) (from UniProt P46940 863-1657) (domain or fragment) | – | 830 | – | – | 520 | 50
